Laboratory results from patent publication US11433099B2, “Immunotherapy with B*08 restricted peptides and combination of peptides against cancers and related methods” (Immatics Biotechnologies GmbH, priority 2018, dated 2022).

Key:
HLA-B*44:05 = HLA-B*44:05 (Homo sapiens, UniProt P01889, A223V/A65T/A93T/A95T/D201E/D98Y/E176V/E187L/E204Q/E69K/G107R/H137Y/K202T/L105A/L119I/N104T/N87E/Q56L/Q94N/R106L/R155S/R180D/S101N/S121R/S35A/S48T/T118I/V36M/W191S/Y91S); test: MHC binding assay (UV-ligand exchange, beta2m ELISA); settings: Table 11B, peptide exchange yield
In short: (§1)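 Peptide–HLA complexes generated by UV-ligand exchange of a UV-cleavable peptide for the test peptide; exchange yield read by β2m ELISA on streptavidin capture (samples diluted 100-fold, 1 h 37 °C), HRP anti-β2m, TMB, A450. Quantified against refolded HLA-A*02:01/MLA-001 monomer standards (15-500 ng/ml).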

[1] = system: CD8+ T cells of healthy HLA-B*08 donors; test: In vitro T-cell priming assay with aAPCs loaded with peptide/MHC complexes and anti-CD28 antibody, pMHC multimer readout; format: cell-based, human; settings: in vitro immunogenicity, HLA class I peptides, Table 10B
From the text: In order to obtain information regarding the immunogenicity of the TUMAPs of the present invention, the inventors performed investigations using an in vitro T-cell priming assay based on repeated stimulations of CD8+ T cells with artificial antigen presenting cells (aAPCs) loaded with peptide/MHC complexes and anti-CD28 antibody.
In order to perform in vitro stimulations by artificial antigen presenting cells loaded with peptide-MHC complex (pMHC) and anti-CD28 antibody, the inventors first isolated CD8+ T cells from fresh HLA-B*08 leukapheresis products via positive selection using CD8 microbeads (Miltenyi Biotec, Bergisch-Gladbach, Germany) of healthy donors obtained from the University clinics Mannheim, Germany, after informed consent.
PBMCs and isolated CD8+ lymphocytes were incubated in T-cell medium (TCM) until use consisting of RPMI-Glutamax (Invitrogen, Karlsruhe, Germany) supplemented with 10% heat inactivated human AB serum (PAN-Biotech, Aidenbach, Germany), 100 U/ml Penicillin/100 μg/ml Streptomycin (Cambrex, Cologne, Germany), 1 mM sodium pyruvate (CC Pro, Oberdorla, Germany), 20 μg/ml Gentamycin (Cambrex). 2.5 ng/ml IL-7 (PromoCell, Heidelberg, Germany) and 10 U/ml IL-2 (Novartis Pharma, Nornberg, Germany) were also added to the TCM at this step.
Generation of pMHC/anti-CD28 coated beads, T-cell stimulations and readout was performed in a highly defined in vitro system using four different pMHC molecules per stimulation condition and 8 different pMHC molecules per readout condition.
The purified co-stimulatory mouse IgG2a anti human CD28 Ab 9.3 (Jung et al., 1987) was chemically biotinylated using Sulfo-N-hydroxysuccinimidobiotin as recommended by the manufacturer (Perbio, Bonn, Germany). Beads used were 5.6 μm diameter streptavidin coated polystyrene particles (Bangs Laboratories, Illinois, USA).
800.000 beads/200 μl were coated in 96-well plates in the presence of 4×12.5 ng different biotin-pMHC, washed and 600 ng biotin anti-CD28 were added subsequently in a volume of 200 μl. Stimulations were initiated in 96-well plates by co-incubating 1×10^6 CD8+ T cells with 2×10^5 washed coated beads in 200 μl TCM supplemented with 5 ng/ml IL-12 (PromoCell) for 3 days at 37° C. Half of the medium was then exchanged by fresh TCM supplemented with 80 U/ml IL-2 and incubating was continued for 4 days at 37° C. This stimulation cycle was performed for a total of three times. For the pMHC multimer readout using 8 different pMHC molecules per condition, a two-dimensional combinatorial coding approach was used as previously described (Andersen et al., 2012) with minor modifications encompassing coupling to 5 different fluorochromes. Finally, multimeric analyses were performed by staining the cells with Live/dead near IR dye (Invitrogen, Karlsruhe, Germany), CD8-FITC antibody clone SK1 (BD, Heidelberg, Germany) and fluorescent pMHC multimers. For analysis, a BD LSRII SORP cytometer equipped with appropriate lasers and filters was used. Peptide specific cells were calculated as percentage of total CD8+ cells. Evaluation of multimeric analysis was done using the FlowJo software (Tree Star, Oregon, USA). In vitro priming of specific multimer+CD8+ lymphocytes was detected by comparing to negative control stimulations.

HLA-B*08:01 = HLA-B*08:01 (Homo sapiens, UniProt P01889); test: MHC binding assay (UV-ligand exchange, beta2m ELISA); settings: MHC class I binding score; binding to HLA-B*08:01 ranged by peptide exchange yield (UV-ligand exchange, β2m ELISA)
In short: as §1

HLA-A*02:01 = HLA-A*02:01 (Homo sapiens, UniProt P04439, D140Y/D185E/D98H/E176V/E277Q/G131W/G231S/I119V/I121R/I166T/I218V/L300P/L318F/N151K/N90K/P208A/P217A/Q86G/Q94H/R138H/R169H/T345S); test: as above; settings: Table 11C, peptide exchange yield
In short: as §1

Row | Substance | Peptide exchange (HLA-B*44:05) | Wells positive [%] [1] | Peptide exchange (HLA-B*08:01) | Peptide exchange (HLA-A*02:01)
1 | 290 (EEFLTPKKL; listed as Homo sapiens) [compound 290] | +++ (≥50% = +++) |  |  | 
2 | 20 (ILKRFLAC; listed as Homo sapiens) [compound 20] |  | + (<20% = +) | +++ (50% = +++) | 
3 | 33 (WIGLRNLDL; listed as Homo sapiens) [compound 33] |  | + (<20% = +) | +++ (50% = +++) | 
4 | 49 (FLRVFTDSL; listed as Homo sapiens) [compound 49] |  | + (<20% = +) | +++ (50% = +++) | 
5 | 1 (ALKLKVAEL; listed as Homo sapiens) [compound 1] |  | ++ (20%-49% = ++) | ++ (20% = ++) | 
6 | 62 (FMLAKEASL; listed as Homo sapiens) [compound 62] |  | + (<20% = +) | ++ (20% = ++) | 
7 | 45 (RLKVALSTL; listed as Homo sapiens) [compound 45] |  | + (<20% = +) | +++ (50% = +++) | 
8 | 68 (DLKIPRYPV; listed as Homo sapiens) [compound 68] |  | +++ (50%-69%= +++) | +++ (50% = +++) | 
9 | 29 (ELFLHPVL; listed as Homo sapiens) [compound 29] |  | ++ (20%-49% = ++) | ++ (20% = ++) | 
10 | 291 (YVYANHFTEA; listed as Homo sapiens) [compound 291] |  |  |  | ++++ (≥75% = ++++)
11 | 82 (SIRKRPML; listed as Homo sapiens) [compound 82] |  | + (<20% = +) | ++ (20% = ++) | 
12 | 80 (EVYLRMYQL; listed as Homo sapiens) [compound 80] |  | +++ (50%-69%= +++) | +++ (50% = +++) | 
13 | 47 (HSRVKLAQL; listed as Homo sapiens) [compound 47] |  | ++ (20%-49% = ++) | ++ (20% = ++) | 
14 | 66 (DLKKTRVL; listed as Homo sapiens) [compound 66] |  | + (<20% = +) | ++ (20% = ++) | 
15 | 48 (ELALRQTV; listed as Homo sapiens) [compound 48] |  | + (<20% = +) | ++ (20% = ++) | 
16 | 34 (IYRKKYIL; listed as Homo sapiens) [compound 34] |  | + (<20% = +) | ++ (20% = ++) | 
17 | 13 (EPFTRPVL; listed as Homo sapiens) [compound 13] |  | + (<20% = +) | ++ (20% = ++) | 
18 | 5 (STMPKILAL; listed as Homo sapiens) [compound 5] |  | + (<20% = +) | +++ (50% = +++) | 
19 | 25 (HLHPKGREL; listed as Homo sapiens) [compound 25] |  | ++ (20%-49% = ++) | ++ (20% = ++) | 
20 | 19 (FTLLRRLSL; listed as Homo sapiens) [compound 19] |  | ++++ (>=70% = ++++) | +++ (50% = +++) | 
21 | 58 (LPKKMKLL; listed as Homo sapiens) [compound 58] |  | ++ (20%-49% = ++) | ++ (20% = ++) | 
22 | 21 (RILKRFLAC; listed as Homo sapiens) [compound 21] |  | + (<20% = +) | +++ (50% = +++) | 
23 | 83 (FVLLRSVDL; listed as Homo sapiens) [compound 83] |  | +++ (50%-69%= +++) | +++ (50% = +++) | 
24 | 31 (SPRVKWTF; listed as Homo sapiens) [compound 31] |  | ++++ (>=70% = ++++) | ++ (20% = ++) | 
